What was measured:
[1] = target: T1, full-length human PMEL17 with an N-terminal gD tag (human, UniProt P40967 25-661); experiment: immunoblot of cell lysates
T1 construct: it is left out here; also called full-length PMEL17; N-terminal gD tagged PMEL17 (human)
T1 sequence: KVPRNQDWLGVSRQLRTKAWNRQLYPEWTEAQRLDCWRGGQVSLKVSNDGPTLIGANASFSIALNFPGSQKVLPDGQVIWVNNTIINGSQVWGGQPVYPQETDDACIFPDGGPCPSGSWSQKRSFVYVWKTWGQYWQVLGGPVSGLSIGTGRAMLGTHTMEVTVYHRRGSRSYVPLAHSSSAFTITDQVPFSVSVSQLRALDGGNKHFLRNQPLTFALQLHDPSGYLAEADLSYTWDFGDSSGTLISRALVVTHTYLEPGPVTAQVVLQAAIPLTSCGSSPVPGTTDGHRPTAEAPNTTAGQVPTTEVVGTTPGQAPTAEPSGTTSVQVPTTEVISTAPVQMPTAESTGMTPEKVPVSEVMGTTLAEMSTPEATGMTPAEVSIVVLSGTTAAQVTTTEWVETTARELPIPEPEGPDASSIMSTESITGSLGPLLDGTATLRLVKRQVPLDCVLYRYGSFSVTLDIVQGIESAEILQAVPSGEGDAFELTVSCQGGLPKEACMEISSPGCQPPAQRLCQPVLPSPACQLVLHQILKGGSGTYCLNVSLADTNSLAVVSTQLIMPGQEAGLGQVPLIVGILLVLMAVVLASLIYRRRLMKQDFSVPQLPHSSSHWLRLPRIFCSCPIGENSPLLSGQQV

[2] = target: T2, cynomolgus monkey PMEL17 with an N-terminal gD tag (cynomolgus monkey, UniProt P40967 25-661 (human entry)); experiment: FACS, 293S cells stably transfected with gD tagged PMEL17, 10 µg/ml 17A9
T2 construct: On stably transfected 293S cells; also called N-terminal gD tagged PMEL17 (cynomolgus monkey)
T2 chain: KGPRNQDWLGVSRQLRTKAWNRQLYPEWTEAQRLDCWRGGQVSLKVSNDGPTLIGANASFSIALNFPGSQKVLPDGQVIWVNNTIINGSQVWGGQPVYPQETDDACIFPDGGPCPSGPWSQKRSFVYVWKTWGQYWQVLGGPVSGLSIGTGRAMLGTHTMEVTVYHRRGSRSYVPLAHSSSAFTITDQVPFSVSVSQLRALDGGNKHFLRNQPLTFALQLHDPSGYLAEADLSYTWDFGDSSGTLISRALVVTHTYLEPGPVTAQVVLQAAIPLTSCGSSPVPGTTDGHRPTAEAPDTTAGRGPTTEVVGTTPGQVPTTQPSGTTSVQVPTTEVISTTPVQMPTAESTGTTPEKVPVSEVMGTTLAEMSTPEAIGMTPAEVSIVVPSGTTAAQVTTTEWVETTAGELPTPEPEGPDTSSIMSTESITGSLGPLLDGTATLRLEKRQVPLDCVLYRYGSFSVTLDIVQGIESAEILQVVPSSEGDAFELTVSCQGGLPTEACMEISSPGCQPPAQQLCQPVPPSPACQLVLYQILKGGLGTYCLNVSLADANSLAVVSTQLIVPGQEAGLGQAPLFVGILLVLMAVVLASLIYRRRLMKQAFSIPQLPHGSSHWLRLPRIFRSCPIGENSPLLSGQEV
Description: (§1) Antibody 17A9 was tested to determine if it cross-reacts with PMEL17 from species other than human. […] All of the sequences include the signal sequence except for the cynomolgus monkey PMEL17. Residues that are identical among all four species are indicated by asterisks (*). In the region where the rat sequence has a deletion, residues that are identical among the remaining three species are indicated by a plus (+). Binding to each species of PMEL17 was determined by FACS analysis using 293S cells stably transfected with an N-terminal gD tagged PMEL17 (human, cynomolgus monkey, rat, or mouse PMEL17); stained with 10 μg/ml 17A9 antibody; and detected with R-Phycoerythrin conjugated goat anti-mouse antibody.

[3] = target: T3, mouse PMEL17 with an N-terminal gD tag (mouse, UniProt Q60696 26-626); experiment: as above
T3 construct: On stably transfected 293S cells; also called N-terminal gD tagged PMEL17 (mouse)
T3 sequence: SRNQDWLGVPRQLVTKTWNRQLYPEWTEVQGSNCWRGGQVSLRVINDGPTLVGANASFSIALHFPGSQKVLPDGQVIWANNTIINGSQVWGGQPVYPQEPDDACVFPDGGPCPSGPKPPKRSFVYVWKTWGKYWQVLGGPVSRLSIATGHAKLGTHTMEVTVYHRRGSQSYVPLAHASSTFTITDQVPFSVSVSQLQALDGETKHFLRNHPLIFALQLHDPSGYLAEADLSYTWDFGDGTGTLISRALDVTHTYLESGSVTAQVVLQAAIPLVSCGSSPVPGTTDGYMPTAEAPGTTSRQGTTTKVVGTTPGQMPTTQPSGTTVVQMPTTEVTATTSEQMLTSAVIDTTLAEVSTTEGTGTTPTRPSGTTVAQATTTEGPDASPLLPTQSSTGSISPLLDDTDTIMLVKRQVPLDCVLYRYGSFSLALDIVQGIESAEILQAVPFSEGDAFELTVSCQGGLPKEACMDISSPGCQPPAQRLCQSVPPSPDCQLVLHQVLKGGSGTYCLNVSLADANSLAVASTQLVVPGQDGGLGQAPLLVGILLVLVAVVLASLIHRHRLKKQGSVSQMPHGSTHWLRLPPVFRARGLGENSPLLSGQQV
Description: as §1

Measured: binding result

B1: 17A9 (antibody, V domains shown)
VH: EVQLQQSGPELVKPGASMKISCKSSGYSFTRYTMNWVKQSHGKNLEWIGVINPYNGGTVYNQKFKGKATLTVDKSSSTAYMELLSLTSEDSAVYYCARTDYDGYAMDYWGQGTSVTVSS
VL: DVQITQSPSYLAASPGETITINCRATKSISKYLAWYQEQPGKTNNLLIYSGSTLQSGIPSRFSGSGSGTDFTLTISSLEPEDFAMYYCQQHNEYPYTFGSGTKLEIK
notes: Mouse monoclonal antibody from a hybridoma (mice immunized with PMEL17 ECD-Fc); also called anti-PMEL17 antibody 17A9
binds: all assays above

Reference: patent US20170240645A1 (Genentech, published 2017)
